Data on one substance can be found in paper PMC10663602.

For the test, the target named is teleost IgM Fc (tFcµ): truncated teleost IgM heavy chain consisting of CHµ3, CHµ4 and the Tp (Oncorhynchus mykiss (rainbow trout)). Description: cryo-EM structure; purified tFcµ tetramer fractions in TBS (20 mM Tris-HCl, NaCl, pH 7.8), 0.1 mg/mL on grids; map at 2.78 Å, C2 symmetry.

The substance “teleost IgM Fc (tFcµ): truncated teleost IgM heavy chain consisting of CHµ3, CHµ4 and the Tp (domain or fragment)” returned a stoichiometry N of 4.

Usually stoichiometry N stands for a count of units in the complex or per binding partner.
